The source of these data is article PMC3942315, “Structural Insights Into DNA Repair by RNase T—An Exonuclease Processing 3′ End of Structured DNA in Repair Pathways” (PLoS Biology, 2014).

In data set [1] the target is T1, RNase T (Escherichia coli (JM109 or K-12), UniProt P30014 1-215).
T1 sequence: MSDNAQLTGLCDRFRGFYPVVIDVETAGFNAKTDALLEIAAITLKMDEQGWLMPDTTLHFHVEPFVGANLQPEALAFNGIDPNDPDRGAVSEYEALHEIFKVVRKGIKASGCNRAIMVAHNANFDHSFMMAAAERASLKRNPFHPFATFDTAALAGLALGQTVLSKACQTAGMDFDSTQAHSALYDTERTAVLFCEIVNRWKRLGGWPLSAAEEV
The experiment in a line: X-ray crystallography; 2 Mg2+ in active site; one DNA per protomer; 1.9 A; EMSA: 20 nM DNA, 0/5/50 uM protein, 100 mM NaCl, 30 mM EDTA, 10 mM EGTA, 50 mM Tris-HCl pH 7.0, 20 min, room temperature. To be noted: protein: recombinant; tags: N-terminal His (pET-28a); chain copies: 2; Y structure (5' and 3' unpaired tails). (In general: A gel shift assay detects complexes by their altered migration in electrophoresis.)

Data set [2] deals with the molecule itself. The experiment in a line: dynamic light scattering; purified recombinant proteins in solution; conditions not given.
The target of data set [3] is T1, RNase T. Briefly: EMSA; 30 mM EDTA, 10 mM EGTA; EMSA: 20 nM DNA, 0/5/50 uM protein, 100 mM NaCl, 30 mM EDTA, 10 mM EGTA, 50 mM Tris-HCl pH 7.0, 20 min, room temperature. The note with it: protein: recombinant, tags: N-terminal His (pET-28a), chain copies: 2, label: 5'-32P, hairpin.

With TTGGCCCTCTTTAGGGCCCC (structured_DNA) [Y-structured DNA, 3'-CC (crystal)], in data set [1], the binding result is on record as “binds”.

B1: RNase T (enzyme, E. coli, UniProt P30014 1-215, looked up)
chain: MSDNAQLTGLCDRFRGFYPVVIDVETAGFNAKTDALLEIAAITLKMDEQGWLMPDTTLHFHVEPFVGANLQPEALAFNGIDPNDPDRGAVSEYEALHEIFKVVRKGIKASGCNRAIMVAHNANFDHSFMMAAAERASLKRNPFHPFATFDTAALAGLALGQTVLSKACQTAGMDFDSTQAHSALYDTERTAVLFCEIVNRWKRLGGWPLSAAEEV
notes: RNase T (rnt gene) of E. coli, full-length gene amplified from genomic DNA of JM109 or K-12 strains, cloned into NdeI/XhoI sites of pET-28a; Wild-type RNase T was used for crystallisation; also called rnt; DnaQ-like exonuclease RNase T; source: E. coli BL21-CodonPlus(DE3)-RIPL, purified (HiTrap TALON, HiTrap Heparin, Superdex 75)
Usually stoichiometry N stands for a count of units in the complex or per binding partner. On to B1, for which the “stoichiometry N” value in data set [2] was 2.

As to GGCCCTCTTTAGGGCCAAGGGTTTAA (structured_DNA) [Stem-loop duplex DNA, 10-nt 3' overhang], in data set [3] (3' overhang 10 nt), the binding result was “binds”.

Regarding GGCCCTCTTTAGGGCCTTAA (structured_DNA) [Stem-loop duplex DNA, 4-nt 3' overhang], the binding result in data set [3] (3' overhang 4 nt) is on record as “binds”.

As to GGCCCTCTTTAGGGCCTTATAA (structured_DNA) [Stem-loop duplex DNA, 6-nt 3' overhang], in data set [3] (3' overhang 6 nt), the binding result is on record as “binds”.
